The data set concerns the molecule itself. Put plainly: DEER.

B1: CueR_19F58_L60H_G64H mutant (natural protein, E. coli)
chain: MNISDVAKITGLTSKAIRFYEEKGLVTPPMRSENGYRTYTQQHLNELTLLRQARQVGFNHEESHELVNLFNDPQRHSADVKRRTLEKVAEIERHIEELQSMRDQLLALANACPGDDSADCPIIENLSGCCHHRAG
modifications: 19F-phenylalanine at F58; Cu(II)-NTA spin label bound at the dHis site (L60H, G64H)
As to B1, the binding result is reported as “binds”.

The values above are taken from paper doi:10.1101/2022.08.03.502720 (bioRxiv, 2022).
